This is an account of results in patent US20160258940A1 (IMRA AMERICA, published 2016).

This assay deals with T1, EpCAM (epithelial cell adhesion molecule) on the surface of HT29 colon cancer cells (UniProt P16422 24-314, limits assumed).
T1 construct: whole, on cells; HT29 is a human cell line
T1 sequence (looked up): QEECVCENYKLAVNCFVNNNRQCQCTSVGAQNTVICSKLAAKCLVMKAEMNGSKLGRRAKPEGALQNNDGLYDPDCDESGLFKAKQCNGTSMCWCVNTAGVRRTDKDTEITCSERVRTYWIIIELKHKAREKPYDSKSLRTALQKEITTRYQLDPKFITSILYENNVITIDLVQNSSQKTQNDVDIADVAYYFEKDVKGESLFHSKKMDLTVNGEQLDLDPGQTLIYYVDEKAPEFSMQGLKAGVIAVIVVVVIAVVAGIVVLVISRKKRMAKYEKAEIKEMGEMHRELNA
Description: confocal fluorescence microscopy of HT29 spheroids with FITC-Ep114/PEG/gold nanoparticles (PEG ratios 100/1, 200/1, 300/1). The procedure: A colon cancer cell line HT29 was used to conduct a cellular uptake test. First, by using 96 holes type culture plate for spheroids, EZ-Sphere™ (Asahi Glass Co., Ltd.), spheroid of HT29 cells was formed.
Specifically, HT29, 4×10⁵ cells were suspended in a culture medium in which 20 ng/ml of human EGF (manufactured by Miltenyi Biotec, K.K.), 20 ng/ml of human FGF-2 (manufactured by Miltenyi Biotec K.K.), 1/50 amount of B-27 supplement×50 (manufactured by GIBCO), and 1/100 amount of Penicillin-Streptomycin Solution×100 (manufactured by Wako Pure Chemical Industries, Ltd.) were added to 3 ml of D-MEM/F-12 medium (Dulbecco's Modified Eagle Medium: Nutrient Mixture F-12 1:1 Mixture, manufactured by GIBCO). The suspension was dispensed to each well of 200 μl, and was cultured in CO₂ incubator at 37° C. for 72 hours.
Then, a part of the spheroids (approximately 20 μl) and the gold particle-peptide complex were placed on a glass bottom dish (D110300, Matsunami Glass Ind., Ltd.), and irradiated laser of 488 nm with 40 magnification objective lens by using an inverted confocal laser microscope (FLUOVIEW FV1000IX81 type, manufactured by Olympus Corporation), and observed using a filter for Alexa488.

Primed or numbered codes have the meaning given here. Ends that are not written are not given here. FITC′ = fluorescein isothiocyanate

B1: EpCAM-binding peptide Ep114 (FITC-labelled), bound to PEG-covered gold nanoparticles (peptide)
peptide: {FITC′}-KHLQCVRNICWSGGK
modifications: cysteine pairing not given here; also: bound to PEG-covered gold nanoparticles
notes: In the assay the peptide covered approx. 15 nm gold nanoparticles that were partially covered with mPEG-SH 5k (PEG:particle ratios 100/1, 200/1, 300/1; 2000 peptides per particle); also called EP114 peptide
Regarding B1, the binding result is “binds”.
